# In US8124742:
# Residue numbers refer to the chain shown, from its start.
# T1: human Rh(D) antigen on Rh(D)-positive red blood cells (human, UniProt Q02161 2-417)
# T1 construct: whole, on cells; also called wt; wild type Rh(D)
# T1 sequence (looked up): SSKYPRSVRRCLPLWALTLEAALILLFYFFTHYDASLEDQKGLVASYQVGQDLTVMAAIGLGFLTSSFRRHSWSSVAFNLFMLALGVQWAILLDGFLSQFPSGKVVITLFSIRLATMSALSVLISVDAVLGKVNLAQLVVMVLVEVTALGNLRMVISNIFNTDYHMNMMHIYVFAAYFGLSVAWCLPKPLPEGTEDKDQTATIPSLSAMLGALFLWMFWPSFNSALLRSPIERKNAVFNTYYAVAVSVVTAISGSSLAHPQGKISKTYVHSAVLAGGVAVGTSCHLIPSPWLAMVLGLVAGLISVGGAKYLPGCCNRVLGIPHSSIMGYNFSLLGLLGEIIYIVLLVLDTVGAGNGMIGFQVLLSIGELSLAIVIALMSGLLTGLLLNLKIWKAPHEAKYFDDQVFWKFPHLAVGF
# B1: SH18 (Fab, V domains shown)
# VH: EVQLLESGGGVVQPGRSLRLSCAASGFTFRSYAMHWVRQAPGKGLEWVAATAYDGKNKYYADSVKGRFTISRDNSMNTLFLQMNSLRAEDTAVFYCARGGFYYDSSGYYGLRHYFDSWGQGTLVTVSS
# VL: AELTQSPSSLSASVGDRVTITCRASQSISIALNWYQQRPGKAPKLLMYATSTLQSGVPSRFSGSGSGTDFTLTISSLQPEDFATYYCQQYYNKPTFGPGTKVDIKR
# notes: Fab on M13 phage
# B2: SH14 (Fab, V domains shown)
# VH: EVQLLESGGGVVQPGRSLRLSCAASGFTFSTYGMHWVRQAPGKGLEWVAVIWFDGSNKEYADSVKGRFTISRDNSKNTLYLQMNSLRAEDTAVYYCAREEVVRGVILWSRKFDYWGQGTLVTVSS
# VL: AELTQSPSSLSASVGDRVTITCRASQNIRRSLNWYQHKPGRAPRLLIYAASTLQSGVPSRFRGSGSGTDFTLTINSLQPADFATYYCQQSSNTPWTFGHGTKVEIKR
# notes: Fab on M13 phage
# B3: SH12 (Fab, V domains shown)
# VH: B2 VH with I70V
# VL: AELTQSPFSLSASVGDRVTITCRASHNIYRSLNWFQHKPGEAPKLLVYAASSLQRGVPTRFSGSGSGTDFTLTISSLQPEDSATYFCQQSVTFPYTFGQGTKLEIRR
# notes: Fab on M13 phage
# B4: SH21 (Fab, V domains shown)
# VH: B2 VH with I70V
# VL: AELTQSPSFLSASVGDRVTITCRASQGIRSYLAWYQQKPGKAPKLLIYAASTLQSGVPSRFSGSGSGTEFTLTIASLQPDDFATYYCQQLNNYPPFTFGPGTKVDIKR
# notes: Fab on M13 phage
# B5: SH25 (Fab, V domains shown)
# VH: VQLLEESGGGVVQPGRSLRLACAASGFSFRSYGMHWVRQAPGRGLEWVAFTWFDGSNKYYVDSVKGRFTISRDNSKNTLYLEMNSLRVDDTAVYYCAREAPMLRGISRYYYAMDVWGPGTTVTVSS
# VL: B2 VL with H37Q, R41K, R44K, T52S, R62S, N75S, A80E, H99Q
# notes: Fab on M13 phage
# B6: SH39 (Fab, V domains shown)
# VH: B2 VH with E1V, V2Q, Q3L, L5E, E6Q, T31S
# VL: AELTQSPSSLSASVGDRVTITCRASQTIGRYLNWYQQRPGKAPKLLVYAVSSLQSGAPSRFSGSGSGTHFTLTITSLQPEDFATYFCQQSYSSPFTFGQGTKVEIKR
# notes: Fab on M13 phage
# B7: SH04 (Fab, V domains shown)
# VH: B2 VH
# VL: B2 VL with H37Q, R41K, R44K, T52S, R62S, N75S, A80E, H99Q
# notes: Fab on M13 phage
# B8: SH20 (Fab, V domains shown)
# VH: VQLLEESGGGVVQPGRSLRLSCAASGFTFRSYAMHWVRQAPGKGLEWVAVISYDGSTIYYADSVKGRFTISRANSKNTLFLQMNSLRTEDTAVYYCTRGGFYYDSSGYYGLRHYFDYWGQGTLVTVSS
# VL: AELTQSPFSLSASVGDRVTITCRASQSISRSLNWYQHKPGEAPKLLIYAASSLQRGVPPRFSGSGSGTDFTLTISSLQPEDFATYFCQQSVRIPYSFGQGTKLEIKR
# notes: Fab on M13 phage
# B9: SH08 (Fab, V domains shown)
# VH: EVQLLESGGGVVQPGRSLRLSCAVSGFTLTNYGMHWVRQAPGKGLEWVAHVWYDGSKTEYADSVKGRFAVSRDKSKNTLFLQMNSLTAEDTAIYYCARERREKVYILFYSWLDRWGQGTLVTVSS
# VL: AELTQSPSSLAASVGDRVTITCRANQTIRTSLNWYQQRPGKAPNLLIYGASRLHSGVPSRFSGGISGADFTLTISSLQPEDFATYYCQQTYGYSRTFGQGTKVDIKR
# notes: Fab on M13 phage; also called SH8
# B10: SH30 (Fab, V domains shown)
# VH: B9 VH
# VL: AELTQSPSSLSASVGDRVTITCRASQSIRRSLNWYQQSPGKTPKLLIYAASSLQSGVPSRFSGSGSGTDFTLTISSLQPEDFATYYCQQSYSTLTFGGGTKVEIKR
# notes: Fab on M13 phage
# B11: SH16 (Fab, V domains shown)
# VH: EVQLLESGGGVVQPGRSLRLSCAASGFTFSSYGMHWVRQAPGRGLEWVALIWYDGGNKEYADSVKGRFSISRDNSKNTLYLQVNSLRADDTAVYYCARDQRAAAGIFYYSRMDVWGQGTTVTVSS
# VL: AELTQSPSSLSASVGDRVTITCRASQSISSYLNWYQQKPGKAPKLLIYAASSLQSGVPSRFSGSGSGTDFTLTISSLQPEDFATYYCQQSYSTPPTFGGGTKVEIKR
# notes: Fab on M13 phage
# B12: SH26 (Fab, V domains shown)
# VH: EVQLLESGGGVVQPGRSLRLSCVVSGFTFNNYGMHWVRQAPGKGLEWVAVIWFDGSNKYYADSVKGRFTISRDNSKNTLYLQMNSLRAEDTAVYYCARENQIKLWSRYLYYFDYWGQGTLVTVSS
# VL: AELTQSPSSLSASVGDRVTITCRASQSISSYLNWYQQKPGKAPKLLIYAASSLQSGVPSRFSGSGSGTDFTLTISSLQPEDFATYYCQQSYSFRRYSFGQGTKLEIKR
# notes: Fab on M13 phage
# B13: SH34 (Fab, V domains shown)
# VH: EVQLLESGGGVVQPGRSLRLSCAASGFSFSSYGMHWVRQAPGKGLEWVAVISYDGTNKYFADSVKGRFTISRDNSKKTLYLQMTSLRPEDTAVYFCANLRGEVTRRASVPLDIWGQGTMVTVSS
# VL: B12 VL with S52G, F93T, R94P, R95P, S97T
# notes: Fab on M13 phage
# B14: SH28 (Fab, V domains shown)
# VH: EVQLLESGGGGVQPGRSLRLSCAASGFTFNSYAMYWVRQPPGKGLEWVAAIWYDGSNKEYADFVKGRFTISRDNSKNTLSLQMNSLRDEDTAVYYCAREANLLRGWSRYYYGMDVWGQGTTVTVSS
# VL: AELTQSPSSLSASVGDRVTITCRADQNIRRSLNWFQQKPGKAPKLLIYAASSLQSGVPSRFSGSGSGTDFTLTISSLQPEDFATYYCQQSSSTPWTFGRGTKVEIKR
# notes: Fab on M13 phage
# B15: SH50 (Fab, V domains shown)
# VH: B14 VH
# VL: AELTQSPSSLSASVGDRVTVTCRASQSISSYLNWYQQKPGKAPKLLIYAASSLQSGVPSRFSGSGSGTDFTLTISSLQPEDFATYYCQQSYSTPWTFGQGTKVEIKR
# notes: Fab on M13 phage
# B16: SH10 (Fab, V domains shown)
# VH: VQLLEESGGGVVQPGRSLRLSCAASGFTFSRNGMHWVRQAPGKGLEWVAFIWFDGSNKYYADSVKGRFTISRDNSKNTLYLQMNSLRADDTAVYYCAREEALFRGLTRWSYGMDVWGQGTTVSVSS
# VL: AELQDPVVSVALGQTVRITCQGDGLRSYYASWYQQKPGQAPKLVMYGRNNRPSGIPGRFSGSSSGQTAALTITGTQAEDEADYYCQSRATSGNPVVFGGGTKLTVL
# notes: Fab on M13 phage
# B17: SH24 (Fab, V domains shown)
# VH: EVQLLESGGGVAQPGRSLRLSCVASGFSLRSYGMHWVRQAPGKGLEWVADIWFDGSNKDYADSVKGRFTISRDNSKNTLYLQMNSLRAEDTAVYYCARDWRVRAFSSGWLSAFDIWGQGTMVTVSS
# VL: AELTQSPSSLSASVGDRVTITCRASQSISTYLNWYQQRPGKAPNLLIYAASTLQRGVPSRFTGSGSGTDFTLTISSLQPEDFATYYCQQSYTTLWTFGQGTKMEIRR
# notes: Fab on M13 phage
# B18: SH32 (Fab, V domains shown)
# VH: EVQLLESGGGVVQPGRSLRLSCEASKFTLYNYGMHWVRQAPGKGLEWVAFIWFDGSNKYYEDSVKGRFTVSRDNSKNTLYLQMNSLRAEDTAVYYCARELSKKVALSRYYYYMDVWGQGTTVTVSS
# VL: AELTQEPSLTVSPGGTVTLTCASSTGAVTSRYFPNWFQQKPGQAPRALIYGSNNKHSWTPARFSGSLLGGKAALTLSGVQPEDEAEYYCLLFYAGAWAFGGGTKLTVL
# notes: Fab on M13 phage
# B19: SH37 (Fab, V domains shown)
# VH: B18 VH
# VL: AELQDPVVSVALGQTVKITCQGDSLRKYYASWYQQKPGQAPVLVFYARNSRPSGIPDRFSGSNSGTTASLTIAGARAEDEADYYCHSRDSNGHHRVFGGGTKLTVL
# notes: Fab on M13 phage
# B20: SH36 (Fab, V domains shown)
# VH: B18 VH with L100G
# VL: AELTQSPSSLSASVGDRVTITCRASQSISSYLNWYQQKPGKSPKLLIYAASSLQSGVPSRFSGSGSGTDFTLTISSLQPEDFATYYCQQSYSTPPAFGPGTKVDIKR
# notes: Fab on M13 phage
# Target: T1, human Rh(D) antigen on Rh(D)-positive …
# Assay: agglutination, anti-M13
# Procedure: The binding of anti-Rh(D) Fab/phage or soluble Fab molecules to normal or partial Rh(D) antigens was assessed by indirect agglutination assays as described (Siegel et al., 1994, Blood 83:2334; Siegel et al., 1997, J. Immunol. Meth. 206: 73). […] Following a one-hour incubation at 37° C., the RBCs were washed 3 times with 2 ml of cold PBS to remove unbound antibody. The resulting RBC pellets were resuspended in 100 μl of a 10 μg/ml solution of sheep anti-M13 antibody (5 Prime-3 Prime, Boulder, Colo.) for Fab/phage experiments or goat anti-human κ or λ light chain antibody (Tago, Burlingame, Calif.) for $\gamma_1\kappa$ or $\gamma_1\lambda$ soluble Fab experiments, respectively. The RBC suspensions were transferred to the round-bottomed wells of a 96-well microplate and left undisturbed for 2 hours. Negative reactions show sharp ~2 millimeter diameter RBC spots whereas the RBCs in agglutinated wells form a thin carpet coating the entire floor of the well (Siegel et al., 1997, J. Immunol. Meth. 206:73). Agglutination titers for recombinant antibodies were determined by performing serial 2-fold dilutions in 1% BSA/PBS.
# Fifty-six randomly chosen colonies were selected, and monoclonal Fab/phage preparations were separately produced from each of these individual colonies, using the methods described herein in Example 1. Rh(D) specificity was determined by indirect agglutination using anti-M13 antibody, as described herein in Examples 1 and 2.
row,Binder,binding result
1,B1,binds
2,B2,binds
3,B3,binds
4,B4,binds
5,B5,binds
6,B6,binds
7,B7,binds
8,B8,binds
9,B9,binds
10,B10,binds
11,B11,binds
12,B12,binds
13,B13,binds
14,B14,binds
15,B15,binds
16,B16,binds
17,B17,binds
18,B18,binds
19,B19,binds
20,B20,binds
